Reference: patent US20190022242A1 (AbbVie / Abbott, published 2019)
Each block holds one binder with its values, some of them ahead of it.

What was measured:
hMMP16ECD(E247A)-Fc = target: T1, hMMP16ECD(E247A)-Fc (human, UniProt P51512 32-564); assay: MSD ELISA, plate coated with hMMP16ECD(E247A)-Fc at 2 ug/mL, antibody 0.5 ug/mL
T1 construct: IgK signal peptide upstream (cleaved); also called phMMP16ECD(E247A)-Fc; not shown: human IgG2 Fc protein

hMMP16ECD(E247A)-His = target: T2, hMMP16ECD(E247A)-His (human, UniProt P51512 32-564); assay: colorimetric ELISA, plate coated with hMMP16-his at 3 ug/mL, antibody 0.5 ug/mL
T2 construct: IgK signal peptide upstream (cleaved); also called hMMP16-his; hMMP16-His protein
T2 sequence (P51512 other isoform, or with tags, fused parts or gaps E247A E247A): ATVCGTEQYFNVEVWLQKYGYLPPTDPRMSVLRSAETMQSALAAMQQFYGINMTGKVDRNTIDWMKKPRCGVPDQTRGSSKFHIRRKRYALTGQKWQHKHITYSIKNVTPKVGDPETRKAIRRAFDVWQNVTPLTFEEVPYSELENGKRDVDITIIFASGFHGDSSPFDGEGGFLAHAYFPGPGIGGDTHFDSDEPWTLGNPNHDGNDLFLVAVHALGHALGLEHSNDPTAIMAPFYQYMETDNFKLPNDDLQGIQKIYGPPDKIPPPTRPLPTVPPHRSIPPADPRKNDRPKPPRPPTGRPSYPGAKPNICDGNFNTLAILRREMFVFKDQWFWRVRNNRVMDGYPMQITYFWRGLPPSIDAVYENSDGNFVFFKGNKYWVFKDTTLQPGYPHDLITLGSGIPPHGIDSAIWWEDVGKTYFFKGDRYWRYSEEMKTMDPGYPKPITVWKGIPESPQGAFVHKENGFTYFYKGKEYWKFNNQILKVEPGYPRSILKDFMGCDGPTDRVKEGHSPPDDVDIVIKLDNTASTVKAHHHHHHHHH

T1 sequence (P51512 32-564 E247A): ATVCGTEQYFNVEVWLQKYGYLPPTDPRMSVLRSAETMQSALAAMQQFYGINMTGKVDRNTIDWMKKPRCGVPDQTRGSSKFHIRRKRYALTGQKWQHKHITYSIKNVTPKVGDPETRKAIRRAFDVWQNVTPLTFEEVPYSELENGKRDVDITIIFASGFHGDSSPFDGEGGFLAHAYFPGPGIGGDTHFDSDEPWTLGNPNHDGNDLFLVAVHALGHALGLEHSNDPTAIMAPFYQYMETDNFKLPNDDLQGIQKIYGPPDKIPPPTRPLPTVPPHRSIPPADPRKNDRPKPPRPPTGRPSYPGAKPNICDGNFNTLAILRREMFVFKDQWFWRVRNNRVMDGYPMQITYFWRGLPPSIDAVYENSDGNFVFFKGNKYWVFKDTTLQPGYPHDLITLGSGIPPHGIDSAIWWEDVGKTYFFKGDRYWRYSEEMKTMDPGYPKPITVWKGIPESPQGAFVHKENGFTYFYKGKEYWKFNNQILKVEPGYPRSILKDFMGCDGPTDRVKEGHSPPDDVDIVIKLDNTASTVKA

- binding result (hMMP16ECD(E247A)-Fc): binds
B1: SC73.17 (antibody, V domains shown)
VH: EVQLQQSGAELVKPGASVKLSCTASGFNFKDTYMHWVKQRPEQGLEWIGRIDPAIGITEYGPKFQGKATITADTSSNTAYLQLSSLTSEDTAVYYCTRGDFYGNSLDVWGAGTTVTVSS
VL: DIVMTQSPATLSVTPGDRVSLSCRASQIISDYLHWYRQKSHESPRLLIKYASQSISGIPSRFSGSGSGSDFTLSINSVEPEDVGVYYCQNGHSFPLTFGTGTKLELK
notes: Murine hybridoma antibody, first inoculation campaign

- binding result (hMMP16ECD(E247A)-His): binds
B2: SC73.101 (antibody, V domains shown)
VH: QIHLVQSGPELKKPGETVKISCKASGYTFTDYSMHWVKQAPGKGLKWMGWINTETGEPTYPDDFKGRFAFSLETSASTAYLQINNLKNEDTATYFCARGYGYDETGTFAYWGQGTLVTVSA
VL: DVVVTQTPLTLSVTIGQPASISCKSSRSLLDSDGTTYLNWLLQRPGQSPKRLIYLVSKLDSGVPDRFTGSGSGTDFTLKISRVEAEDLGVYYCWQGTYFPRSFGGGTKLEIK
notes: Murine hybridoma antibody, second inoculation campaign; mouse IgG2a was used as its isotype control in IHC; also called anti-MMP16 antibody (clone SC73.101)
